Earlier results in publication PMC7564214.

Biological target: LC3B (Homo sapiens) (UniProt Q9GZQ8)

Kd: 100 µM
Substance: TRIM5α (from UniProt Q9C035)
